Measured values as given in patent US20020131970A1 (Scripps Research, published 2002).
Values belong to the molecule of their own block, whether it stands above or below them.

Assays:
[1] = target: recombinant ICAM-1 on the surface of transfected fibroblast-like (COS) cells of Example 4 (human) (UniProt P05362); test: 125I-D30 on ICAM-1 transfected cells, with MnCl2, no inhibitor
[2] = target: recombinant ICAM-1 on the surface of transfected fibroblast-like (COS) cells of Example 4 (human) (UniProt P05362); test: 125I-D30 on ICAM-1 transfected cells, with CaCl2, no inhibitor
[3] = target: intercellular adhesion molecule 1 (ICAM-1), the RGD-independent fibrinogen receptor, native, on the surface of cells (HUVEC, JY lymphocytes) (human) (UniProt P05362); test: 125I-D30 at 10 µg/ml on HUVEC monolayers
[4] = target: T1, intercellular adhesion molecule 1 (ICAM-1), the RGD-independent fibrinogen receptor, native, on the surface … (human, UniProt P05362 28-532); test: adhesion of 51Cr-labelled ICAM-1+ JY lymphocytes to peptide-coated wells
T1 construct: whole, on cells; assays on HUVEC monolayers are written against this molecule; also called ECR; endothelial cell receptor

[5] = target: T1, intercellular adhesion molecule 1 …; test: adhesion of 51Cr-labelled ICAM-1+ JY lymphocytes to wells coated with 1-100 µg/ml peptide
Experimental: Serum-free suspensions of JY lymphocytes were labeled with 0.5 mCi ⁵¹Cr (Na₂CrO₄, specific activity 487.4 mCi/mg, E. I., DuPont de Nemours, Wilmington, Del.) for 2 h at 37° C., with a final incorporation of 0.2-4 cpm/cell (Languino, et al., supra). Aliquots of ⁵¹Cr-labeled JY lymphocytes at 1×10⁶/ml were added to peptide-coated wells for 45 min at 37° C., washed, solubilized in 20% SDS, and radioactivity associated under the various conditions was determined in a scintillation beta-counter. The number of attached cells was quantitated by dividing the cpm harvested by the cpm/cell. Data are the mean ± S.D. of two independent experiments.
The specific binding of radiolabelled ICAM-1⁺ JY lymphocytes to increasing concentrations of γ3 was measured to characterize the ICAM-1 binding site. The number of attached cells is plotted on the Y-axis against peptide concentration (μg/ml) plotted on the X-axis.

T1 sequence (P05362 28-532): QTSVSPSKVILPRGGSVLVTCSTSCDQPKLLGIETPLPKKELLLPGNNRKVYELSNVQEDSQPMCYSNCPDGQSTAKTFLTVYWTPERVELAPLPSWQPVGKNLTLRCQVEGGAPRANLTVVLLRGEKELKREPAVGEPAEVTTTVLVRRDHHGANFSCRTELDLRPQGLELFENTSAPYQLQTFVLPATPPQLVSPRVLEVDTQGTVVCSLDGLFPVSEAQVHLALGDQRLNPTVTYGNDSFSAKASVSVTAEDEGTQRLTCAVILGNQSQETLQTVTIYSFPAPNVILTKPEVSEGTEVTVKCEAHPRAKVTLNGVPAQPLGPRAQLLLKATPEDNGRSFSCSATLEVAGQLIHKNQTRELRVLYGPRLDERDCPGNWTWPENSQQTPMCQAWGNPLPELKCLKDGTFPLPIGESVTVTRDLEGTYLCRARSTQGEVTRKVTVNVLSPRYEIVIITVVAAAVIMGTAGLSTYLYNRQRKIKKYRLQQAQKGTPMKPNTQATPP
recombinant ICAM-1 on the surface of transfected fibroblast-like (COS) cells of Example 4 (human), sequence (P05362 28-532): as above
intercellular adhesion molecule 1 (ICAM-1), the RGD-independent fibrinogen receptor, native, on the surface of cells (HUVEC, JY lymphocytes) (human), sequence (P05362 28-532): as above

- cpm bound [1]: 7500 cpm
- cpm bound [2]: 3000 cpm
- cpm bound [3]: 60000 cpm
Molecule: D30 fragment of fibrinogen (30 kD plasmin digestion product of fragment D) (from UniProt P02671 155-225; P02675 164-250)

- binding result [4]: no binding (tested: 1-100 µg/ml coating)
B1: polypeptide L10, fibrinogen γ chain residues 402-411 (peptide)
peptide: LGGAKQAGDV
notes: also called control peptide L10; irrelevant polypeptide L10

- binding result [5]: binds
B2: polypeptide γ3, fibrinogen γ chain residues 117-133 (peptide)
peptide: NNQKIVNLKEKVAQLEA
notes: Coated on plates in the JY adhesion assays; also called γ3 polypeptide; unlabeled γ3 peptide
